Laboratory results published in patent US20200283478A1.

Biological target: PCSK9Δhelix (human)
Test: phage spot ELISA

PCSK9Δhelix (human), sequence (prodomain, as listed by the source mutant limits assumed, chain 1 of 2): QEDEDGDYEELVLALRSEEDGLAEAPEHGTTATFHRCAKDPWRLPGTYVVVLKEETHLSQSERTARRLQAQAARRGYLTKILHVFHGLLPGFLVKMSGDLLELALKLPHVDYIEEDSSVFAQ
PCSK9Δhelix (human), sequence (chain, as listed by the source mutant limits assumed, chain 2 of 2): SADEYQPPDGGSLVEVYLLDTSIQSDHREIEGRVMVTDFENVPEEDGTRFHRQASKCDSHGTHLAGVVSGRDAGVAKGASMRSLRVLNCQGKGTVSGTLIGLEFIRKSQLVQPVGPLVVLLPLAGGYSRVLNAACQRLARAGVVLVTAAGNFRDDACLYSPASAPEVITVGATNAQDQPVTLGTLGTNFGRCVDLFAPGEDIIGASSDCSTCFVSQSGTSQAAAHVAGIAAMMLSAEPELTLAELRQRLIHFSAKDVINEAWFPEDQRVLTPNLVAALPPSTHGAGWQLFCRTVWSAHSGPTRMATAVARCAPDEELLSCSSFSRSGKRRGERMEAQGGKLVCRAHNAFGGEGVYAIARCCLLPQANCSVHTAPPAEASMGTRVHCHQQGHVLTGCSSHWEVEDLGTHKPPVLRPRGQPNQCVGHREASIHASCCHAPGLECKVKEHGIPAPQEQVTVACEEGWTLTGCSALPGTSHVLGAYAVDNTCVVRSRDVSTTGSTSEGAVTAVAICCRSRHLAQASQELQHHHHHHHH

ELISA | s/n ratio | s/n | Binder
0.657 | 5.01 | – | SGDFIPWNLVRIGLLR [SEQ ID NO 385]
2.76 | 1.49 | – | TAFTSWEEYLDWVGSGCMEAWQCSLA [SEQ ID NO 337]
1.21 | – | 1.85 | SGVCSDHYIGGKEVRC [SEQ ID NO 378]
